Data taken from patent US20020058626A1, “Agents for preventing and treating thrombocytopenia” (CHUGAI SEIYAKU KABUSHIKI KAISHA, priority 1996, published 2002).

B1: human PTH(1-84) (protein, UniProt P01270 32-115, looked up)
Parathyroid hormone: SVSEIQLMHNLGKHLNSMERVEWLRKKLQDVHNFVALGAPLAPRDAGSQRPRKKEDNVLVESHEKSLGEADKADVNVLTKAKSQ
modifications: Parathyroid hormone

What was measured:
platelet count [1] = experiment: Effectiveness of PTH derivative, daily administration to mouse (peripheral platelet count); type: in vivo; settings: C57B1/6N mice, 200 μg/kg subcutaneous once a day for six days, 24 h after final administration; FIG. 3
Protocol: Ten-week old male C57B1/6N mice as purchased from Japan Charles River Co., Ltd. were used in the experiment.
Drug solutions to be administered were prepared basically from human PTH(1-84) and human PTH(1-34) by the same procedure as in Example 1 to give a drug concentration of 20 μg/mL.
Eighteen mice were divided into three groups, which were administered subcutaneously with the two drug solutions and a control (citrate buffer) for six days on a once-a-day basis in a volume of 10 mL/kg. […] The administration was initiated at 10 a.m.
After 24 h of the final administration, a blood sample was withdrawn from each mouse through the orbital vein. Peripheral corpuscle counts were obtained with an automatic corpuscle counter F-800 (TOA MEDICAL ELECTRONICS CO., LTD)

platelet count [2] = experiment: Test for daily administration to rabbit (platelet count); type: in vivo; settings: three rabbits, FIG. 4
Protocol: Six 12-15 week old male Japanese albino rabbits JW/CSK were used in the experiment. The animals were individually kept in aluminum rabbit bracket cages Rb-1 (350^w×500^d×350^h mm) in a vavarium in a specific pathogen-free environment under the following conditions: temperature, 24±2° C.; humidity, 50±10%; illumination, light turned on at 5:00 and turned off at 19:00; ventilation, 15 changes/hr. Each animal was supplied with 120 g of a radiation-sterilized feed for rabbits RM (purchased from Funahashi Farm) per day. The animals were also allowed to drink to tap water ad libitum from an automatic water feeder.
Human PTH(1-84) was administered in a volume of 2 mL/vial at a concentration of 200 μg/mL. A solvent was also supplied in a volume of 2 mL/vial. Both the drug and the control were stored at −135° C. until use.
PTH (200 μg/kg) was administered to the rabbits subcutaneously at the back of their neck for 13 consecutive days. The solvent was similarly administered in the same volume as the dose of a rh-PTH solution calculated from their body weight.
Blood samples (0.5 mL) were withdrawn from the rabbits through the lateral auricular vein before the administration and on days 2, 6, 9 and 13 during the administration period. […]

platelet counts = experiment: Test for single-dose administration to mouse (peripheral platelet count); type: in vivo; settings: C57B1/6N mice, single dose 10 μg/kg through the tail vein, 6 and 9 h after the administration; FIG. 1
Protocol: Nine-week old male C57B1/6N mice as purchased from Japan Charles River Co. Ltd. were used in the experiment.
Human PTH(1-84) was dissolved in a citrate buffer (pH 5; containing 0.05% of Tween 80) at final concentrations of 1, 0.2 and 0.04 ˜g/mL so as to prepare the drug solutions to be administered.
Each of the thus prepared drug solutions and a control (citrate buffer) was administered to 15 mice through the tail vein in a volume of 10 mL/kg. […] The administration was initiated at 10 a.m.
After 3, 6 and 9 hours of the administration, five mice were picked up at random from each group of animals and blood samples were withdrawn through the orbital vein. At 10 a.m. on the same day, separate blood samples were taken from untreated mice (four in number) to obtain the preadministration value. Peripheral corpuscle counts were obtained with an automatic corpuscle counter F-800 (TOA MEDICAL ELECTRONICS CO., LTD.)

platelet count [3] = experiment: Test for daily administration to mouse (peripheral platelet count); type: in vivo; settings: C57B1/6N mice, subcutaneous once a day, FIG. 2
Protocol: Nine-week old male C57B1/6N mice as purchased from Japan Charles River Co., Ltd. were used in the experiment.
Drug solutions to be administered were prepared basically by the same procedure as in Example 1 to give drug concentrations of 5, 20 and 80 μg/mL.
The mice under test were divided into four groups, which were administered subcutaneously with the three drug solutions and a control (citrate buffer) once a day in a volume of 10 mL/kg. […] The administration was initiated at 10 a.m.
On days 5, 7 and 9 after the start of administration, five or six mice were picked up at random from each group of animals and blood samples were withdrawn through the orbital vein. The sampling of blood was timed to occur 24 h of the final administration. Separate blood samples were taken from untreated mice (five in number) to obtain the value for normal mouse. Peripheral corpuscle counts were obtained with an automatic corpuscle counter F-800(TOA MEDICAL ELECTRONICS CO., LTD.).

[4] = tested on: BFU-E (precursor cells of erythrocytes); settings: report by Meytes et al, J. Clin. Invest. Vol. 67, 1263-1269:1981; cited from earlier work
[5] = tested on: CFU-GM (precursor cells of granulocytes and macrophages); settings: report by Meytes et al, J. Clin. Invest. Vol. 67, 1263-1269:1981; cited from earlier work

Molecule | platelet increasing action compared with PTH(1-84) (platelet count [1]) | platelet count on day 13 (platelet count [2]; 200 μg/kg subcutaneous daily for 13 days, day 13) | platelet count relative to the initial value, increase from day 2 until day 6 (platelet count [2]; 200 μg/kg subcutaneous daily) | platelet counts versus control (platelet counts) | platelet count versus control, day 5 (platelet count [3]; 200 and 800 μg/kg groups only, day 5, 24 h after final administration) | platelet count versus control, day 7 (platelet count [3]; all treated groups (50, 200 and 800 μg/kg), day 7) | in vitro colony formation by BFU-E [4] | in vitro colony formation by CFU-GM [5]
human PTH(1-34) (SVSEIQLMHNLGKHLNSMERVEWLRKKLQDVHNF; Parathyroid hormone; UniProt P01270 32-65, looked up, fragment) [PTH(134), partial peptide of PTH composed of 34 amino acids from the N terminus; purchased from Peptide Institute, Inc] | comparable platelet increasing action to PTH(1-84) |  |  |  |  |  |  | 
B1 |  | substantially returned to the initial level | two to four | significant increase in platelet counts over the control | tendency to increase | significantly higher in platelet count than the control | interfered with | interfered with
